Assay results as given in PMC4920411, “Binary Toxin Subunits of Lysinibacillus sphaericus Are Monomeric and Form Heterodimers after In Vitro Activation” (PLoS ONE, 2016).

Tests used:
Conditions in all cases: both partners purified
[1] = target: T1, activated BinB (act-B), trypsin-cleaved (Lysinibacillus sphaericus); assay: AUC; sedimentation equilibrium, 20°C, 3–10 μM in monomer, 10 to 22.5 krpm, same buffer with 35 mM C8E5 density matched with 16% D2O; global fit to an A+B heteroassociation model (SEDPHAT)
T1 chain: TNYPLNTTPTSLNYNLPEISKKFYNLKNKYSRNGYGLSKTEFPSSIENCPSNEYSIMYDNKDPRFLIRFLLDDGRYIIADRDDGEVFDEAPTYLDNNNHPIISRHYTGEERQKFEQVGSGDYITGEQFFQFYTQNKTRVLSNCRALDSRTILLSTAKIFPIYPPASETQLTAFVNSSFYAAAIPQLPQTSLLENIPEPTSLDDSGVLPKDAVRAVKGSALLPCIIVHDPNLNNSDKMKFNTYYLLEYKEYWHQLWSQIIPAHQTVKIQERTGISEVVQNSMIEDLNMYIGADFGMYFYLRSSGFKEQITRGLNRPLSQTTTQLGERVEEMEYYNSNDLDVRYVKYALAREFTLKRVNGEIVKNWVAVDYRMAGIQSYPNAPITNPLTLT

[2] = target: T1, activated BinB (act-B), trypsin-cleaved; assay: AUC; sedimentation equilibrium, 20°C, 3–10 μM in monomer, 10 to 22.5 krpm, 50 mM Tris-HCl pH 9.0, 50 mM NaCl, 1 mM DTT, without detergent; global fit to an A+B heteroassociation model (SEDPHAT)
[3] = target: T1, activated BinB (act-B), trypsin-cleaved; assay: SEC; Superdex 200 HR 10/30, 50 mM Tris-HCl pH 9.0, 50 mM NaCl, 1 mM DTT; subunits alone or mixed 1:1, incubated 15 min at room temperature; typically 60 μM before and 18 μM after chromatography (total monomer); eluted band checked by SDS-PAGE and MALDI-TOF

B1: activated BinA (act-A), trypsin-cleaved (domain or fragment)
chain: IDSFIPTEGKYIRVMDFYNSEYPFCIHAPSAPNGDIMTEICSRENNQYFIFFPTDDGRVIIANRHNGSVFTGEATSVVSDIYTGSPLQFFREVKRTMATYYLAIQNPESATDVRALEPHSHELPSRLYYTNNIENNSNILISNKEQIYLTLPSLPENEQYPKTPVLSGIDDIGPNQSEKSIIGSTLIPCIMVSDFISLGERMKTTPYYYVKHTQYWQSMWSALFPPGSKETKTEKSGITDTSQISMTDGINVSIGADFGLRFGNKTFGIKGGFTYDTKTQITNTSQLLIETTYTREYTNTENFPVRYTGYVLASEFTLHRSDGTQVNTIPWVALNDNYTTIARYPHFASEPLLGNTKIITDDQN
modifications: Trypsin-activated. Cleavage sites not given; UniProt mature chain limits used (MALDI about 40.8 kDa). Strain not given; P06575 chosen over the strain variant P05516. / Trypsin-activated. Cleavage
[1]
  Ka: 1.92e+06 M⁻¹
[2]
  Ka: 1.19e+06 M⁻¹
[3]
  stoichiometry N: 1
